Experimental data published in article PMC7912224.

Assays:
[1] = biological target: HBc protein (core protein) of hepatitis B virus genotype F (hepatitis B virus genotype F); test: reassociation by dialysis, tested by electron microscopy, DLS, SDS-PAGE and NAGE; purified HBc dimers dialysed from dissociation buffer against PBS at +4 °C overnight; dimers to VLPs (empty capsids)
[2] = biological target: HBc protein (core protein) of hepatitis B virus genotype F (hepatitis B virus genotype F); test: SEC; VLPs incubated in GuHCl- and LiCl-containing dissociation buffer, +4 °C, 16 h; debris removed; supernatant on a Superose6 or Superdex200 column in dissociation buffer; capsid to dimers, the dimer stays
[3] = biological target: HBc protein (core protein) of hepatitis B virus genotype G (hepatitis B virus genotype G); test: reassociation by dialysis, tested by electron microscopy, DLS, SDS-PAGE and NAGE; purified HBc dimers dialysed from dissociation buffer against PBS at +4 °C overnight; dimers to VLPs (empty capsids)
[4] = biological target: HBc protein (core protein) of hepatitis B virus genotype G (hepatitis B virus genotype G); test: SEC; VLPs incubated in GuHCl- and LiCl-containing dissociation buffer, +4 °C, 16 h; debris removed; supernatant on a Superose6 or Superdex200 column in dissociation buffer; capsid to dimers, the dimer stays
[5] = biological target: HBc protein (core protein) of hepatitis B virus genotype D (hepatitis B virus genotype D); test: reassociation by dialysis, tested by electron microscopy, DLS, SDS-PAGE and NAGE; purified HBc dimers dialysed from dissociation buffer against PBS at +4 °C overnight; dimers to VLPs (empty capsids)
[6] = biological target: HBc protein (core protein) of hepatitis B virus genotype D (hepatitis B virus genotype D); test: SEC; VLPs incubated in GuHCl- and LiCl-containing dissociation buffer, +4 °C, 16 h; debris removed; supernatant on a Superose6 or Superdex200 column in dissociation buffer; capsid to dimers, the dimer stays

Q: “HBc protein (core protein) of hepatitis B virus genotype F (natural protein)” was tested. Which Reassociated dimers (percent of dimers reassociated in VLPs) [1] did it give?
A: 80%

Q: And the Dimer content [2]?
A: 30%

Q: And the percent of the treated soluble VLPs as dimers [2]?
A: 40%

Q: What about the stoichiometry N [2] of the same substance?
A: 2

Q: Which results are given for “HBc protein (core protein) of hepatitis B virus genotype G (natural protein)”?
A: Reassociated dimers (percent of dimers reassociated in VLPs) [3]: 90%; Dimer content [4]: 30%; percent of the treated soluble VLPs as dimers [4]: 80%; stoichiometry N [4]: 2

Q: “HBc protein (core protein) of hepatitis B virus genotype D (natural protein)” was tested. Which Reassociated dimers (percent of dimers reassociated in VLPs) [5] did it give?
A: 80%

Q: What about the Dimer content [6] of the same substance?
A: 30%

Q: And the percent of the treated soluble VLPs as dimers [6]?
A: 70%

Q: And the stoichiometry N [6]?
A: 2
